Source: patent EP1947117A2 (THE UNITED STATES GOVERNMENT as represented by THE …, dated 2008)
Each block holds one binder with its values, some of them ahead of it.

Key:
[1] = target: hCG receptor on MA-10 cells (transformed murine Leydig cells) (murine, UniProt P30730 27-700); assay: cell-based or functional assay
[2] = target: human TSH receptor on CHO cells (CHO-hTSHR clone JP09) (human, UniProt P16473 21-764); assay: cell-based or functional assay

hCG receptor on MA-10 cells (transformed murine Leydig cells), sequence (P30730 27-700): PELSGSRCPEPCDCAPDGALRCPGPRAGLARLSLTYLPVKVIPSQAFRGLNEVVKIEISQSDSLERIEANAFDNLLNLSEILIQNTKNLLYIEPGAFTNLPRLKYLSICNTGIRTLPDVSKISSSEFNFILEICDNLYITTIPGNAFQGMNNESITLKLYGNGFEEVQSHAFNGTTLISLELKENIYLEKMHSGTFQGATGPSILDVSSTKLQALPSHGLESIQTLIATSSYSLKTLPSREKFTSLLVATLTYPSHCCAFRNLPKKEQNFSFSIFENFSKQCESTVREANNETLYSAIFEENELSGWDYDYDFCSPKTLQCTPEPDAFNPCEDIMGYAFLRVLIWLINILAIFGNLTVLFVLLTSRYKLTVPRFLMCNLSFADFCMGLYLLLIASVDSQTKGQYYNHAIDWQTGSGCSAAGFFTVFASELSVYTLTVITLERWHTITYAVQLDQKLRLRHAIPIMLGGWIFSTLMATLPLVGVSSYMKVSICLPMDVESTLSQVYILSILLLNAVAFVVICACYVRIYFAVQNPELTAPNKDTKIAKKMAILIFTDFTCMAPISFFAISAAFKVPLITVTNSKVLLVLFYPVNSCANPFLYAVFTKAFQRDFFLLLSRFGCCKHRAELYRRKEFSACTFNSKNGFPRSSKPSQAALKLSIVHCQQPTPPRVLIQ

Progesterone synthesis in MA 10 cells, EC50 [1]: 6.9 ng/mL
B1: WT-hCG (wild-type recombinant human chorionic gonadotropin) (ligand)
chain 1: not shown
chain 2: SKEPLRPRCRPINATLAVEKEGCPVCITVNTTICAGYCPTMTRVLQGVLPALPQVVCNYRDVRFESIRLPGCPRGVNPVVSYAVALSCQCALCRRSTTDCGGPKDHPLTCDDPRFQDSSSSKAPPPSLPSPSRLPGPSDTPILPQ

cAMP stimulation in JP09 cells, EC50 [2]: 6.7 ng/mL
cAMP stimulation in JP09 cells, relative potency (WT=1) [2]: 1 fold (WT=1)
B2: WT-hTSH (wild-type recombinant human thyroid stimulating hormone) (ligand)
chain 1: not shown
chain 2: FCIPTEYTMHIERRECAYCLTINTTICAGYCMTRDINGKLFLPKYALSQDVCTYRDFIYRTVEIPGCPLHVAPYFSYPVALSCKCGKCNTDYSDCIHEAIKTNYCTKPQKSY
